Biological target: the molecule itself
Assay: SEC

B1: MDM2 RING homodimer (MDM2 428-C), tag removed (domain or fragment)
chain: SSLPLNAIEPCVICQGRPKNGCIVHGKTGHLMACFTCAKKLKKRNKPCPVCRQPIQMIVLTYFP
binding result: binds
